# Laboratory results reported in article PMC9838529, “The neoepitope of the complement C5b-9 Membrane Attack Complex is formed by proximity of adjacent ancillary regions of C9” (Communications Biology, 2023).
# Tests used:
# [1] = biological target: the molecule itself; assay: SEC; analytical size exclusion (Superdex 200 Increase 5/150 GL) of C9 after the polyC9 reaction (10 mM HEPES pH 7.2, 50 mM NaCl, overnight at 37 °C); oligomer in the void volume (~1.2 mL), monomer at ~2.1 mL
# [2] = biological target: T1, whole MAC (C5b6, C7, C8αβγ, human C9) formed on liposomes (Homo sapiens); assay: far-Western, overlay or dot blot; slot immunoblot of MAC formed on liposomes from C5b6 (1 to 16.8 nM), C7 30 nM, C8 30 nM, C9 7 nM; probed with aE11; details: both partners purified
# T1 construct: C5b of C5b6: beta chain of complement C5; C5b of C5b6: alpha' chain of complement C5 (alpha chain without C5a); complement component C6 of C5b6; complement component C7; complement component C8 alpha chain; complement component C8 beta chain; complement component C8 gamma chain; complement component C9, human, wild type, as in m8; oligomeric in the MAC; also called C5b-9; oligomeric human C9 …
# [3] = biological target: T2, polyC9 (in vitro homo-oligomerised human C9, wild type) (human); assay: SPR; aE11 IgG amine-coupled to a CM5 chip (~700 RU), polyC9 as analyte; Biacore T200, 25 °C; 10 mM HEPES-NaOH pH 7.2, 150 mM NaCl, 1 mM EDTA, 0.005% P20; multi-cycle kinetics; maximum response as relative measure; one-to-one model disregarding multivalency; details: both partners purified
# T2 construct: complement component C9, human, wild type, cloned in pSecTag2A; Tag-less purification; also called oligomeric C9; wild type oligomeric C9; source: Expi293F, purified (DEAE, CHT, SEC); oligomerised by incubating 1 mg/mL C9 overnight at 37 °C; copies: 22
# T2 sequence (chain, as listed by the source): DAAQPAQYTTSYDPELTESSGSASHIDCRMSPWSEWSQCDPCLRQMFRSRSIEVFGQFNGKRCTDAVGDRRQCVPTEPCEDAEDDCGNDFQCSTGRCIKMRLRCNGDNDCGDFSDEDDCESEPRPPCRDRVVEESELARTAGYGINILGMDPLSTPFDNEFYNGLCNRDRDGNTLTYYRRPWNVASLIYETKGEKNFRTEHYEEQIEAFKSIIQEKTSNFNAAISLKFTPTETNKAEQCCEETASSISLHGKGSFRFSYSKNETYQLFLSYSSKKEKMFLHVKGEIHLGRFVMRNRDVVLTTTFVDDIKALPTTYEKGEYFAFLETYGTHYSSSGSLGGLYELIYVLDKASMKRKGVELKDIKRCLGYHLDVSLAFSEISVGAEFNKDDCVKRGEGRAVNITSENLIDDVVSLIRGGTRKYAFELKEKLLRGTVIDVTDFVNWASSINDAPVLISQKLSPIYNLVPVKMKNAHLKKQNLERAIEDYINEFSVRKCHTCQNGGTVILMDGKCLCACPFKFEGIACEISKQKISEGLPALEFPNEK
# T1 sequence (P02748 22-559): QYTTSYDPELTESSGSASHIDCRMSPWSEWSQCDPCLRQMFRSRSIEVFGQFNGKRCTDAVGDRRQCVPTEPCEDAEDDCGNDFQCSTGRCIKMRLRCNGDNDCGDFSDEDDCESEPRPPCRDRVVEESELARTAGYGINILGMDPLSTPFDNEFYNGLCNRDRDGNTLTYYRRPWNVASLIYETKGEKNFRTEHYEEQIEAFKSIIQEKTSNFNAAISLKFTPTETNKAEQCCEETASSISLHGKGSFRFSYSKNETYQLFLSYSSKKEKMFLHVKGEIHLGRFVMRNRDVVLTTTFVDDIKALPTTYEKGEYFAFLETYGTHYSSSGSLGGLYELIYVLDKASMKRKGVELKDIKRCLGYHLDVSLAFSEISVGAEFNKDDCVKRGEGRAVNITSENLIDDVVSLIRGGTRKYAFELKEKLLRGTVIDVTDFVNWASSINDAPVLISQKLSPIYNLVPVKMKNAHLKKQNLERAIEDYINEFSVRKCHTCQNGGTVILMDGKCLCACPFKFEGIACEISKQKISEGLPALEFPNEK
binding result [2],koff [3] [s⁻¹],Binder,binding result [1]
–,–,"human complement C9 R65Q/V68E/P72E (natural protein, complement component C9, human, human-to-murine triple mutant; also called triple mutant; source: Expi293F, purified tag-less (anion exchange, CHT, SEC)) not shown",binds
–,–,"human complement C9 V68E (natural protein, complement component C9, human, human-to-murine point mutant; source: Expi293F, purified tag-less (anion exchange, CHT, SEC)) not shown",binds
binds,~1e-06,"aE11 IgG (antibody, V domains shown, heavy chain of mouse monoclonal aE11; variable region as the heavy chain of m1 in PDB 8DE6; light chain (kappa) of mouse monoclonal aE11; variable region as the light chain of m1 in PDB 8DE6; also called monoclonal aE11; full aE11 IgG; source: purified from hybridoma supernatant by protein G chromatography) VH: QVQLKESGPGLVAPSQSLSITCTVSGFSLTVYGVNWIRQPPGKGLEWLGMIWGDGSTDYNSALKSRLSITKDNSKSQVFLKMNSLQTDDTARYYCARDRSYGGSSAWFGYWGQGTLVTVSA VL: DIQMTQTTSSLSASLGDRVTISCRASHDISNYLNWYQQKPDGTLKLLIYYTSRLHSGVPSRFSGSGSGTDYSLTISNLEQEDVATYFCQQGNYLPYTFGGGTKLEIK",–
